Paper PMC6007958, “Identification, characterization and application of a new peptide against anterior gradient homolog 2 (AGR2)” (Oncotarget, 2018)
No end group written: not given here. *: point of attachment. Biotin = O=C1N[C@H]2[C@H](CS[C@H]2CCCCC(=O)*)N1

T1: AGR2 (Homo sapiens, UniProt O95994)
T1 construct: histidine tag (N, cleaved yes); made in house; host or cells: E. coli BL21 de3
T1 sequence (O95994 with tags, fused parts or gaps): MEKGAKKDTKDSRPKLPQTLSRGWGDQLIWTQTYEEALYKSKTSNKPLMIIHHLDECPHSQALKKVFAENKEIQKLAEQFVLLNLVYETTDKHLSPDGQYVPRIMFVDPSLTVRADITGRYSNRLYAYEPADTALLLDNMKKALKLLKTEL

T2: extracellular AGR2 (eAGR2) in spent media of cancer cell lines (human (endogenous in MCF-7 and 22Rv1), UniProt O95994 21-175)
T2 sequence (looked up): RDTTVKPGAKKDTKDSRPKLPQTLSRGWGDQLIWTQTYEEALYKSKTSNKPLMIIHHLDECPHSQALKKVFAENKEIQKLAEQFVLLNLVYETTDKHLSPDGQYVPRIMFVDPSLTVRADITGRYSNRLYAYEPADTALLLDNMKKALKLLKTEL

T3: H10 peptide (biotin-…)
T3 chain: GGGSGMKMQVRIYLV

B1: Δ27 AGR2 (recombinant anterior gradient protein 2 without the ER leader sequence), O95994 E96K (protein)
chain: GAKKDTKDSRPKLPQTLSRGWGDQLIWTQTYEEALYKSKTSNKPLMIIHHLDECPHSQALKKVFAENKKIQKLAEQFVLLNLVYETTDKHLSPDGQYVPRIMFVDPSLTVRADITGRYSNRLYAYEPADTALLLDNMKKALKLLKTELGLNDIFEAQKIEWHE
B2: Δ27 AGR2 (recombinant anterior gradient protein 2 without the ER leader sequence), O95994 E60Q (protein)
chain: GAKKDTKDSRPKLPQTLSRGWGDQLIWTQTYEQALYKSKTSNKPLMIIHHLDECPHSQALKKVFAENKEIQKLAEQFVLLNLVYETTDKHLSPDGQYVPRIMFVDPSLTVRADITGRYSNRLYAYEPADTALLLDNMKKALKLLKTELGLNDIFEAQKIEWHE

Experiments:
[1] = system: EGFR phosphorylation in PC3 cells; assay: Western blot of EGFR / p-EGFR-Y1068; assay type: cell-based; settings: PC3 cells dosed 16 hours, p-EGFR-Y1068 by western blot
Protocol: We sought to ascertain a potential mechanism leading to decreased viability of cells upon exposure to H10 by examining cancer related pathways that have been linked with AGR2. […] We investigated the impact of H10 on EGFR phosphorylation as a possible mechanism of action. PC3 cells were dosed with H10 for 16 hours and the levels of EGFR and p-EGFR-Y1068 were analyzed by western blot (Figure 5C). […] Since amphiregulin is downstream of the HIPPO pathway, we also assessed the phosphorylation of the HIPPO effector, YAP1. We hypothesized that H10 may indirectly downregulate EGFR phosphorylation by altering activity of YAP1 (phosphorylation of YAP1 prevents […] translocation to the nucleus and transcription of amphiregulin [24]). Cell lysates from PC3 cells treated with H10 and the scrambled peptide were subject to immunoblot (Figure 5C).

[2] = system: PC-3 cells; assay: Oris exclusion zone cell migration assay; assay type: cell-based; settings: PC-3, 48 hours; taxol 5 nM, H10 10 μg/ml, control peptide 10 μg/ml, AGR2 antibody; fluorescent microscopy of cell-free zone
Protocol: (§1) Cells were seeded into Oris™ 96-well plate with silicon stoppers in place (CMA1.101). Cell density was optimized for each cell type, PC-3 and MDA-MB-231 were seeded at 2.5×10^5 cells/mL or 6×10^4 cells/mL. Stoppers were removed 12 hours post seeding according to the manufacturer's protocol and treatments were added, Taxol (5 nM) (Selleckchem), H10 peptide (10 μg/ml), scrambled peptide (10 μg/ml), mouse anti-AGR2 antibody (1:50 of 2 μg/ml) (Santa Cruz Biotechnology), mouse-IgG (Santa Cruz Biotechnology), DMSO as control. After 48 hours, growth medium was aspirated and cells were fixed with 4% paraformaldehyde (Alfa Aesar) for 15 minutes at RT and washed with PBS. Cells were stained with Rhodamine phalloidin (Biotium) 1:40 and Hoechst (Invitrogen) 1:10,000 for 20 minutes at RT and washed with PBS.
(§2) Imaging was performed on a Zeiss Observer.Z1 microscope at 2.5x objective with AxioCam MRm camera and Axio Vision 4.8 software. Images were processed using ImageJ software package ( http://rsb.info.nih.gov/ij/) and following the cell migration method previously designed. The data was analyzed using GraphPad Prism 7.

[3] = system: MDA-MB-231 cells; assay: Oris exclusion zone cell migration assay; assay type: cell-based; settings: MDA-MB-231, 48 hours; H10 5 μmoles/L (10 μg/ml), taxol 5 nM, control peptide 10 μg/ml
Protocol: as §1, §2

[4] = system: MDA-MB-231; assay: Luminescent cytotoxicity (ATP viability, CellTiter-Glo) assay; assay type: cell-based; settings: MDA-MB-231, 48 hours, eight concentrations, 4PL fit, read-out: IC50, cell viability
Protocol: (§3) Cells were seeded into 96-well White with Clear Flat Bottom plates (Costar). Cell density was optimized for each cell type, PC-3 and MDA-MB-231 were seeded at 0.24×10^6 cells/mL or 0.06×10^6 cells/mL. After 12 hours, treatments were added, with the stock concentration for Taxol at 400 nM (Selleckchem), H10 peptide was 200 μg/mL and the control peptide was 200 μg/mL. We tested a total of eight concentrations using three-fold serial dilutions from the stock concentration. After 48 hours of treatment, we used the CellTiter-Glo Luminescent Cell Viability Assay (Promega) according to the manufacturer's protocol. The data was analyzed on Prism software using “log(inhibitor) vs. response” option. IC50 was calculated using the 4PL equation 1 as above.

[5] = system: PC-3; assay: as above; assay type: cell-based; settings: PC-3, 48 hours, eight concentrations, 4PL fit, read-out: IC50, cell viability
Protocol: as §3

[6] = biological target: T1, AGR2; assay: SPR competition, AGR2 binding to immobilized H10 in presence of free peptide; settings: peptide 500 nM co-/pre-incubated with AGR2 500 nM
Protocol: SPR measurements were carried out on a Biacore T200 (GE) and data was analyzed using Biacore T200 Evaluation Software (version 1.0). Data was analyzed for a 1:1, two-stage and bivalent binding model. Average affinities were obtained from independent experimental repeats and errors are given as mean absolute deviations. Measurements were carried out at flow rates of 20 μL/min and confirmed experimentally to avoid mass transfer limitation. For direct binding studies of AGR2 to biotinylated H10-peptide a carboxymethyl-Dextran coated CM5 chip was coated with Streptavidin using standard amine coupling chemistry. Residual activated carboxyl groups were blocked with 1,2-Ethylenediamine. In contrast to conventional ethanolamine blocking, this procedure introduces positive charges to partially compensate the negative surface charge and reduce unspecific binding by AGR2. Biotinylated peptide was loaded and remaining free biotin sites were blocked by incubating the chip in biotin containing buffer over night to allow for biotinylated peptides to be used in competition assays. Optimal binding and minimal unspecific interaction was found for a running buffer consisting of Tris (100 mM, pH 7.5), NaCl (150 mM) and MgCl2 (10 mM).

[7] = biological target: T2, extracellular AGR2 (eAGR2) in spent …; assay: cell-based or functional assay
[8] = biological target: T3, H10 peptide (biotin-…); assay: ELISA; settings: chain shown with the change, read off a plot
[9] = AGR2 100 ng/ml, parent: est. 61
[10] = AGR2 200 ng/ml, parent: est. 76
[11] = AGR2 400 ng/ml, parent: est. 82
[12] = AGR2 600 ng/ml, parent: est. 83
[13] = AGR2 800 ng/ml, parent: est. 91

Row | Molecule | response [8, 9] | response [8, 10] | response [8, 11] | response [8, 12] | response [8, 13] | also measured
1 | GGGSG VMLKYMIQRV [scrambled peptide] |  |  |  |  |  | concentration sufficient to downregulate EGFR phosphorylation [1]: > 20 µM
2 | CC(=O)O[C@H]1C(=O)[C@@]2(C)[C@H]([C@H](OC(=O)c3ccccc3)[C@]3(O)C[C@H](OC(=O)[C@H](O)[C@@H](NC(=O)c4ccccc4)c4ccccc4)C(C)=C1C3(C)C)[C@]1(OC(C)=O)CO[C@@H]1C[C@@H]2O [taxol] |  |  |  |  |  | inhibition of cell migration [2]: inhibits cell migration of PC-3 cells
3 | Biotin-GSGSGSGSGSGSGSS [control peptide, biotinylated Gly/Ser control peptide, length 15] |  |  |  |  |  | inhibition of cell migration [3]: did not alter cell migration; IC50 [4]: > 100 µM; IC50 [5]: > 100 µM; suppression of AGR2 binding to immobilized H10 by free peptide [6]: largely ineffective
4 | Biotin-GGGSGMKMQVRIYLV [H10 peptide (biotin-GGGSGMKMQVRIYLV)] |  |  |  |  |  | ATP viability assay (CellTiter-Glo), MDA-MB-231 cells, 48 hours, IC50 of H10 [7]: 12 µM; ATP viability assay (CellTiter-Glo), PC-3 cells, 48 hours, IC50 of H10 [7]: 9 µM
5 | B1 | 30 % of binding | 27 % of binding | 30 % of binding | 36 % of binding | 55 % of binding | 
6 | B2 | 42 % of binding | 42 % of binding | 46 % of binding | 51 % of binding | 57 % of binding | 
